Data on 41 sequences can be found in the nanobody polyreactivity screen of Harvey et al. (2022).

This data set in a line: yeast display, Sf9 membrane polyspecificity reagent, FACS + sequencing; frameworks hold sequencing errors. The essentials: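 Galactose induction of a Saccharomyces cerevisiae BJ5465 synthetic nanobody display library ran 36–48 hours. The cells were then stained for 1 hour at 4 °C with 10% biotinylated, detergent-solubilized Sf9 membrane reagent, pulled down on streptavidin microbeads and FACS-sorted into low and high (top ~1%) gates on expression and reagent-binding fluorescence. Labels for polyreactivity follow the gate of origin.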
On to “QVQLVEAGGGLVQAGGSLRLSCAASGRIFRTYAMGWYRQAPGKESELVAAINISGDRTYYADSVKGRFTISRDHAKNTVYLQMNSLKPEDTAVYYCAAAGYRYWGAIYYWGQGTQVTVSS”, for which the “polyreactivity (PSR sort gate)” value is recorded as “high polyreactivity”. The entry for “QVQLVEAGGGLVQAGGSLRLSCAASGRTFKGYAMGWYRPAPGKERELVAAITKRGGSTYYADSVKGRFTISRDNAKNTVYLQMNSLKPEDTAVYYCNADKQGSRHGDDYWGQGTQVTVSS” is “high polyreactivity”. As for “QVQLVEAGGGLVQAGGSLRLSCAASGSIFAQNVRGWSRQAPGKERELVAAISYSGGTTYYADSVKGRFTISRDNAMNTVYLQMNSLKPEDTAVYDCAAEFGVYEYDYWGQGTQVTVSS”, the “polyreactivity (PSR sort gate)” value was “low polyreactivity”. Turning to “QVQLVEAGGGLVQAGGSLRLSCAASGSTFAGYAMGWYRQAPGKERELVATITYSGGSTYYADSVKGRFTISRDNAKNTVYLQMNSLKPEDTAVYYCAKKASYWWGYEYWGQGTQVTVSS”, the “polyreactivity (PSR sort gate)” value was “low polyreactivity”.

For “QVQLVEAGGGLVQAGGSLRLSCAASVSTLFFNAMGWYRQGTGKERELVAGITDGGNTNYADSVKGRFTISRDNAKNTVYIQMNSLKPEDTAVYYCATDGVNPFYAYDYWGQGTQVTVSS”, the “polyreactivity (PSR sort gate)” value was “low polyreactivity”. As for “QVQLVEAGGGLVQAGGSLRLSCAPSGFTFGSYARRCYRQAPGKERELVAAIRLSGGSTTYADSVKGRFTITRDNEKKTVYLQMNSLKAEDTAVYYCAARVHVGYYWTFYYWGQGTQVTVSS”, the “polyreactivity (PSR sort gate)” value is recorded as “high polyreactivity”. With “QVQLVEAGGRLVQAAGSLRLSLAASAFNTTAMGWYRQAPGKDRELVAAITSDGDSTYYADSVKGRFTISRDNAQNTDYFQKNCVKPVDTAVYYCAADAVPTSVVYWGFYGMYWGQGTQVTVSS”, the “polyreactivity (PSR sort gate)” value is recorded as “low polyreactivity”. With “QVQLVEAGRGLVQAGGSLRLSCAASGRTIDHYAMGWYRQAPGKERELVAAMSPTGGSTYYADSVKGRFTISRDNAKNSVYLQMNSLKPEDTAVYYCNARYYFYSATVDRYYHFYYWGQGTQVTVSS”, the “polyreactivity (PSR sort gate)” value is listed as “high polyreactivity”. For the sequence “QVQLVEKGGCLVQAGGSLSLSCAAYGRTFILNSMGCYRQAPWKEMELVAAISWSGGSTYYADSVKGRFTISRDNAKNTVYLQMNSLKPEDTAVYYCAAETYAYLFHTYDYWGQGTQVTVSS”, the “polyreactivity (PSR sort gate)” value is on record as “low polyreactivity”. “QVQLVEKGGGLVQAGGSLRLSCAASGRTFQYYAMGWYRQAPGNERELVAAINQGGGRTYYADSVKGRFTISRDNAKNTVYLQMNSLKPEDTAVYYCAADGLSKFDYWGQGTQVTVSS”: the “polyreactivity (PSR sort gate)” value is given as “low polyreactivity”. On to “QVQLVEPGGGLVQAGGSLRLSCAASGSTFTLYAMGWYRQAPGKERELVATLTGSAGSTNYADSVKGRFTISRDNAKNTVYLQMNSLKPEDTAVYYCAKRVQQSTWYGYGIGYEYWGQGTQVTVSS”, for which the “polyreactivity (PSR sort gate)” value was “high polyreactivity”. “QVQLVEPGGGLVQAGGSLRLSCAASGSTFVEYDMGWYRQAPGKERELVAGINSGDRTNYADSVKGRFTISRDNEKNTVYLQMNSLKPEDTAVYYCAVDYRSYAYDYWGQGTQVSVSS”: the “polyreactivity (PSR sort gate)” value is “low polyreactivity”. Consider “QVQLVESAAGLVQAGGSHRLSCAASGFTFDHYAMGWSRQEPGKESELVAAISKRGGTTYYADSVKGRFTISRDNAKNTVYLQTKSLKPEDTAVYYCNADVNNWEDDYYYWGQGTQVTVSS”, for which the “polyreactivity (PSR sort gate)” value is reported as “high polyreactivity”.

In the case of “QVQLVESAAGLVQAGGSLRLRCAASGRIFSDYAMGWYRQAPGKERELVATITSGDSTNYADSVKGRFTISGDNAKNTDYLQMNSLKPEDTAVYYCNADRFADYDYWGQGTQLTVSS”, the “polyreactivity (PSR sort gate)” value was “low polyreactivity”.

Take “QVQLVESAAGLVQAGGSLRLSGAASGRIFRYNAMGGYRQAPGNERELVAAISSGGSTNYADSVKGRFTTSRDNAKNTVYLQMNSLKPEDTAVYYCNADSVHRYPGWGYDYWGLGTQVTVSS”: the “polyreactivity (PSR sort gate)” value is recorded as “low polyreactivity”.

“QVQLVESAGGLDQAGGSLRLSCAASGSIFYIYAMGWYRQAPGKERELVATISGSGGSTHYADSVKGRFTISRDNAKNSVYLQKNSLKPEDTAVYYCAADVLPYGYYWGQGPQVTVSS”: the “polyreactivity (PSR sort gate)” value is listed as “low polyreactivity”. With “QVQLVESAGGLVQAAGSLRLSCAASGSIFSTNAMGWYRQAPGKERELVAAITYRGRTFYADSVKGRFTISRDNAKNTVYLQMNSLKPEDTAVYYCNAVGISWFGYLKAYVYWGKGTQVTVSS”, the “polyreactivity (PSR sort gate)” value was “high polyreactivity”. For the sequence “QVQLVESAGGLVQAGASLRLSCDASGRIFPSNAMGWSRQAPGKERELVAAITSSGGSTYYADSVKGRFTISRDYAKNTVYLQMNSLKPEHTAVYYCPARFYSGPGGYTIYYWGQGTQVTVSS”, the “polyreactivity (PSR sort gate)” value is “high polyreactivity”. In the case of “QVQLVESAGGLVQAGASRRLSCAASGRTVSLYTMGWSRQSPGKESELVASITSSGSTSYADSVKGRFTISRDNAKNTVYLQMNSLKPEDTAVYYCNAAVSYPKYPYVSPGVPSYDYWGQGTQVTVSS”, the “polyreactivity (PSR sort gate)” value is on record as “low polyreactivity”. Take “QVQLVESAGGLVQAGGILRLSCAASGSTFDSYGMGWYRQAPGKERELVASISVSGGGTYYADSVKGRFTISRDNAKNTVYLQMNSLKPEDTAVYYCNARYGNESQGWEDYWGQGTQVTVSS”: the “polyreactivity (PSR sort gate)” value is given as “low polyreactivity”. With “QVQLVESAGGLVQAGGRLRLSCAASGFIFTTNAMGWYRQAPGKEREFVAAITRSGGSTYADSVKGRFTISRDNAKNTVYLQMNSLKPEDTAVYYFNADWAGVDTSYEYDYWGQGTQVTVSS”, the “polyreactivity (PSR sort gate)” value was “low polyreactivity”.

Take “QVQLVESAGGLVQAGGRLSLICAASGYTFYYHAMGWYRQAPGKERELVASIRSRGRSTYYADSVKGRFTISRDNAKNTVYLQMNSLKPEDTAVYYCAALPNKPAVYAYDYWGQGTQVTVSS”: the “polyreactivity (PSR sort gate)” value is “low polyreactivity”. For “QVQLVESAGGLVQAGGSLLLSCAASGSTFGTYAMGWYRQAPGKERELVAAISTGGSTYYADSVKGRFTISRDNAKNTVYLQMNSLKPEDTAVYYCAALAEYVRRASDYWGQGTQVTVSS”, the “polyreactivity (PSR sort gate)” value was “low polyreactivity”. For the sequence “QVQLVESAGGLVQAGGSLRITCAASASTYSWYTMGWYREAPGKERELVASINYSGTNTYYADSVKGRFTISRDNAKNTVYLQMNSLNPEDTAVYYCAARPRTKLTAYNYCGQGTQVTVSS”, the “polyreactivity (PSR sort gate)” value was “high polyreactivity”. As for “QVQLVESAGGLVQAGGSLRLICAASGLIFYRNTMGWYRQAPGKERELVAAISVSGGSTNYADSVKGRFTISRDNAKNTVYLQMNILKPEDTAVYFCATRVNYGYYYWGQGTQVTVSS”, the “polyreactivity (PSR sort gate)” value is “high polyreactivity”. Then “QVQLVESAGGLVQAGGSLRLICAASGRIFGGNTRGWYREAPGKERELGASIRSRGGRTNYADSLNGRFTISRDTAKNTVYLQMNSLQPEDTSVYYCDATQIYRFDYWGQGTQVTVSS”, with “low polyreactivity”. On to “QVQLVESAGGLVQAGGSLRLICAATGRIYEIYAMGWYRQAPGTERELVATIDSGGSTNYADSVKGRFTISRDNAKNTVYLQMNSLQPEDTAVYYCAGGNPFYDSIGYDYWGQGTQVTVSS”, for which the “polyreactivity (PSR sort gate)” value is listed as “low polyreactivity”. On to “QVQLVESAGGLVQAGGSLRLSCAASGFIFDVYAMGWYRQAPGKERELVAAISVSSTNYADSVKGRFTISRDNAKNTVYLQMNSLKPEDTAVYYCAADTYTYFLASYLYGQYDYWGQGTQVTVSS”, for which the “polyreactivity (PSR sort gate)” value is recorded as “low polyreactivity”. Turning to “QVQLVESAGGLVQAGGSLRLSCAASGFIFPRYAMGWYRQAPGKERELVAAISYSGGSTYYADSVKGRFTISRDNAKNTVYLQMNSLKPEDTAVYYCNAYFLSQYQRAYRDDYWGQGTQVTVSS”, the “polyreactivity (PSR sort gate)” value is “high polyreactivity”.

For “QVQLVESAGGLVQAGGSLRLSCAASGFTFVYYVMGWYRQAPGKERELVAAINAGGGSTYYADSVKGRFTISRDNAKNTVYLQMNSLIPEDTAVYYCIARVRVRLGRNWSSYYDWGQCTQVTVSS”, the “polyreactivity (PSR sort gate)” value was “high polyreactivity”. Consider “QVQLVESAGGLVQAGGSLRLSCAASGIIFVENAMGWYRQAPGKERELVAAISWDGGSTYYADSVKGRFTISRDNAKNTVYLQMNSLNPEDTAVYYCAADLTISYSQEYYYWGQGTQVTVSS”, for which the “polyreactivity (PSR sort gate)” value is given as “low polyreactivity”.

Turning to “QVQLVESAGGLVQAGGSLRLSCAASGLIFAVYAKGLYRQAPGKEREFLAAITGTGSSTYYADSVKGRFTISRDNAKNTVYLQMNSLKPEDTAVYYCNAYVYDWIPYYHIDHDYWGQGTQVTVSS”, the “polyreactivity (PSR sort gate)” value is “low polyreactivity”. On to “QVQLVESAGGLVQAGGSLRLSCAASGLIFEYNAMGWYRQAPGKERELVAAITTNGGSTYYADSVKGRFTISRDNAKNTVYLQINSLKPEDTAVYYCAALGLHQVIEYDYWGQGTQVTVSS”, for which the “polyreactivity (PSR sort gate)” value is given as “low polyreactivity”. Consider “QVQLVESAGGLVQAGGSLRLSCAASGRIFPRYAMGWYRQAPGKERELVAAINTSGGRTYYADSVKGRFTISRDYAKNTVYLQMNSLKPEDTAVYFCAADYRSRYDYWGQGTQVTVSS”, for which the “polyreactivity (PSR sort gate)” value is “high polyreactivity”. Turning to “QVQLVESAGGLVQAGGSLRLSCAASGRIFTNNAMGWYRQAPGKERELVAAISRSGGRTYYADTVKGRFTISRDNAKNTVYVQMNSLKPEDTAVSYCAALGPYGSARRKYGYWGQGTQVTVSS”, the “polyreactivity (PSR sort gate)” value is given as “high polyreactivity”. As for “QVQLVESAGGLVQAGGSLRLSCAASGRIFWDYAMGWYRQAPGKERELVATITQNDGSTYYADSVKGRFTISRDNAKNTVYLQMNSLKPEDTAVYYCAAYLLGWFTIKYDYGGQGTQVTVSS”, the “polyreactivity (PSR sort gate)” value was “low polyreactivity”. As for “QVQLVESAGGLVQAGGSLRLSCAASGRTFDAYAMGWYRQAPGKERELVATITSGGGTYYADSVKGRFTISRDNAKNTVYLLMNSLTPEDTAVYYCNKRYVVSRKYDYWGQGTQVTVSS”, the “polyreactivity (PSR sort gate)” value is listed as “low polyreactivity”.

“QVQLVESAGGLVQAGGSLRLSCAASGRTFGGYAMGWYRQAPGKERELVASITSGGSTYYADSVKGRFTISRDNAKNTVYLEMNSLKPEDTAVYYCAADTYFETSTRAIPSNDYWGQGTQVTVSS”: the “polyreactivity (PSR sort gate)” value was “low polyreactivity”. Then “QVQLVESAGGLVQAGGSLRLSCAASGRTFIGNAMGWYRQAPAKERELVAGISYRGGSTYYADSVKGRFSFSRDNAKNTVYLQMNSLKPEDTAVYYCAAPGRGGYYYWGQGTQVTVSS”, with “high polyreactivity”. As to “QVQLVESAGGLVQAGGSLRLSCAASGRTFTCNAMGWYRQAPGKERELVAAISYSGGSTYYADSVKGRFTISRDNAKNTVYLQMNSLKPEDTAVYNCAVLGTPYGLNDYWGQGTQVTVSS”, the “polyreactivity (PSR sort gate)” value is listed as “high polyreactivity”.

On to “QVQLVESAGGLVQAGGSLRLSCAASGRTLTFKTMGWYRQAPGKERELVAGISYSGGSTYYADSVKGRFTISRDNAKNTVYLQMNSLKPEDTAVYYCNAVRVYRRRYDSWGQGTKVTVSS”, for which the “polyreactivity (PSR sort gate)” value is “high polyreactivity”.
